Assay results as given in article PMC8626070 (Science Advances, 2021).

Assays:
Test in all cases: oriented sample solid-state NMR
[1] = target: wild-type sarcolipin (SLN^wt), recombinant (UniProt O00631 1-31)
[2] = target: SLN^ΔY29Q30Y31 (sarcolipin with Y29, Q30 and Y31 deleted) (UniProt O00631 1-31, ΔY29Q30Y31)
[3] = target: SLN^ΔI3N4T5 (sarcolipin with I3, N4 and T5 deleted) (UniProt O00631 1-31, ΔI3N4T5)
[4] = target: SLN^ΔT5R6E7 (sarcolipin with T5, R6 and E7 deleted) (UniProt O00631 1-31, ΔT5R6E7)

Measured: binding result

B1: sarcoplasmic reticulum Ca2+-ATPase SERCA1a purified from rabbit skeletal muscle (enzyme)
chain: MEAAHSKSTEECLAYFGVSETTGLTPDQVKRHLEKYGHNELPAEEGKSLWELVIEQFEDLLVRILLLAACISFVLAWFEEGEETITAFVEPFVILLILIANAIVGVWQERNAENAIEALKEYEPEMGKVYRADRKSVQRIKARDIVPGDIVEVAVGDKVPADIRILSIKSTTLRVDQSILTGESVSVIKHTEPVPDPRAVNQDKKNMLFSGTNIAAGKALGIVATTGVSTEIGKIRDQMAATEQDKTPLQQKLDEFGEQLSKVISLICVAVWLINIGHFNDPVHGGSWIRGAIYYFKIAVALAVAAIPEGLPAVITTCLALGTRRMAKKNAIVRSLPSVETLGCTSVICSDKTGTLTTNQMSVCKMFIIDKVDGDFCSLNEFSITGSTYAPEGEVLKNDKPIRSGQFDGLVELATICALCNDSSLDFNETKGVYEKVGEATETALTTLVEKMNVFNTEVRNLSKVERANACNSVIRQLMKKEFTLEFSRDRKSMSVYCSPAKSSRAAVGNKMFVKGAPEGVIDRCNYVRVGTTRVPMTGPVKEKILSVIKEWGTGRDTLRCLALATRDTPPKREEMVLDDSSRFMEYETDLTFVGVVGMLDPPRKEVMGSIQLCRDAGIRVIMITGDNKGTAIAICRRIGIFGENEEVADRAYTGREFDDLPLAEQREACRRACCFARVEPSHKSKIVEYLQSYDEITAMTGDGVNDAPALKKAEIGIAMGSGTAVAKTASEMVLADDNFSTIVAAVEEGRAIYNNMKQFIRYLISSNVGEVVCIFLTAALGLPEALIPVQLLWVNLVTDGLPATALGFNPPDLDIMDRPPRSPKEPLISGWLFFRYMAIGGYVGAATVGAAAWWFMYAEDGPGVTYHQLTHFMQCTEDHPHFEGLDCEIFEAPEPMTMALSVLVTIEMCNALNSLSENQSLMRMPPWVNIWLLGSICLSMSLHFLILYVDPLPMIFKLKALDLTQWLMVLKISLPVIGLDEILKFIARNYLEG
binds: all assays above
